B1: rac-gamma serine/threonine-protein kinase (AKt3) (enzyme)
chain: SDVTIVKEGWVQKRGEYIKNWRPRYFLLKTDGSFIGYKEKPQDVDLPYPLNNFSVAKCQLMKTERPKPNTFIIRCLQWTTVIERTFHVDTPEEREEWTEAIQAVADRLQRQEEERMNCSPTSQIDNIGEEEMDASTTHHKRKTMNDFDYLKLLGKGTFGKVILVREKASGKYYAMKILKKEVIIAKDEVAHTLTESRVLKNTRHPFLTSLKYSFQTKDRLCFVMEYVNGGELFFHLSRERVFSEDRTRFYGAEIVSALDYLHSGKIVYRDLKLENLMLDKDGHIKITDFGLCKEGITDAATMKTFCGTPEYLAPEVLEDNDYGRAVDWWGLGVVMYEMMCGRLPFYNQDHEKLFELILMEDIKFPRTLSSDAKSLLSGLLIKDPNKRLGGGPDDAKEIMRHSFFSGVNWQDVYDKKLVPPFKPQVTSETDTRYFDEEFTAQTITITPPEKYDEDGMDCMDNERRPHFPQFSYSASGRE
notes: Endogenous protein of RA-treated hTS cells
B2: myocyte enhancer factor 2A (MEF2A) (other, human, UniProt Q02078 1-507, looked up)
chain: MGRKKIQITRIMDERNRQVTFTKRKFGLMKKAYELSVLCDCEIALIIFNSSNKLFQYASTDMDKVLLKYTEYNEPHESRTNSDIVEALNKKEHRGCDSPDPDTSYVLTPHTEEKYKKINEEFDNMMRNHKIAPGLPPQNFSMSVTVPVTSPNALSYTNPGSSLVSPSLAASSTLTDSSMLSPPQTTLHRNVSPGAPQRPPSTGNAGGMLSTTDLTVPNGAGSSPVGNGFVNSRASPNLIGATGANSLGKVMPTKSPPPPGGGNLGMNSRKPDLRVVIPPSSKGMMPPLSEEEELELNTQRISSSQATQPLATPVVSVTTPSLPPQGLVYSAMPTAYNTDYSLTSADLSALQGFNSPGMLSLGQVSAWQQHHLGQAALSSLVAGGQLSQGSNLSINTNQNISIKSEPISPPRDRMTPSGFQQQQQQQQQQQPPPPPQPQPQPPQPQPRQEMGRSPVDSLSSSSSSYDGSDREDPRGDFHSPIVLGRPPNTEDRESPSVKRMRMDAWVT
notes: as for B1

Columns and labels:
[1] = target: mechanistic target of rapamycin (mTOR) (human, UniProt P42345 1-2549); test: immunoprecipitation and Western blot, RA-treated hTS cells (FIG. 28d)
[2] = target: T1, E1A binding protein p300 (EP300) (human, UniProt Q09472 2-2414); test: immunoprecipitation and Western blot, RA-treated hTS cells (FIG. 22c)
T1 construct: Endogenous protein of RA-treated hTS cells; also called ER300
T1 sequence (Q09472 2-2414 limits assumed): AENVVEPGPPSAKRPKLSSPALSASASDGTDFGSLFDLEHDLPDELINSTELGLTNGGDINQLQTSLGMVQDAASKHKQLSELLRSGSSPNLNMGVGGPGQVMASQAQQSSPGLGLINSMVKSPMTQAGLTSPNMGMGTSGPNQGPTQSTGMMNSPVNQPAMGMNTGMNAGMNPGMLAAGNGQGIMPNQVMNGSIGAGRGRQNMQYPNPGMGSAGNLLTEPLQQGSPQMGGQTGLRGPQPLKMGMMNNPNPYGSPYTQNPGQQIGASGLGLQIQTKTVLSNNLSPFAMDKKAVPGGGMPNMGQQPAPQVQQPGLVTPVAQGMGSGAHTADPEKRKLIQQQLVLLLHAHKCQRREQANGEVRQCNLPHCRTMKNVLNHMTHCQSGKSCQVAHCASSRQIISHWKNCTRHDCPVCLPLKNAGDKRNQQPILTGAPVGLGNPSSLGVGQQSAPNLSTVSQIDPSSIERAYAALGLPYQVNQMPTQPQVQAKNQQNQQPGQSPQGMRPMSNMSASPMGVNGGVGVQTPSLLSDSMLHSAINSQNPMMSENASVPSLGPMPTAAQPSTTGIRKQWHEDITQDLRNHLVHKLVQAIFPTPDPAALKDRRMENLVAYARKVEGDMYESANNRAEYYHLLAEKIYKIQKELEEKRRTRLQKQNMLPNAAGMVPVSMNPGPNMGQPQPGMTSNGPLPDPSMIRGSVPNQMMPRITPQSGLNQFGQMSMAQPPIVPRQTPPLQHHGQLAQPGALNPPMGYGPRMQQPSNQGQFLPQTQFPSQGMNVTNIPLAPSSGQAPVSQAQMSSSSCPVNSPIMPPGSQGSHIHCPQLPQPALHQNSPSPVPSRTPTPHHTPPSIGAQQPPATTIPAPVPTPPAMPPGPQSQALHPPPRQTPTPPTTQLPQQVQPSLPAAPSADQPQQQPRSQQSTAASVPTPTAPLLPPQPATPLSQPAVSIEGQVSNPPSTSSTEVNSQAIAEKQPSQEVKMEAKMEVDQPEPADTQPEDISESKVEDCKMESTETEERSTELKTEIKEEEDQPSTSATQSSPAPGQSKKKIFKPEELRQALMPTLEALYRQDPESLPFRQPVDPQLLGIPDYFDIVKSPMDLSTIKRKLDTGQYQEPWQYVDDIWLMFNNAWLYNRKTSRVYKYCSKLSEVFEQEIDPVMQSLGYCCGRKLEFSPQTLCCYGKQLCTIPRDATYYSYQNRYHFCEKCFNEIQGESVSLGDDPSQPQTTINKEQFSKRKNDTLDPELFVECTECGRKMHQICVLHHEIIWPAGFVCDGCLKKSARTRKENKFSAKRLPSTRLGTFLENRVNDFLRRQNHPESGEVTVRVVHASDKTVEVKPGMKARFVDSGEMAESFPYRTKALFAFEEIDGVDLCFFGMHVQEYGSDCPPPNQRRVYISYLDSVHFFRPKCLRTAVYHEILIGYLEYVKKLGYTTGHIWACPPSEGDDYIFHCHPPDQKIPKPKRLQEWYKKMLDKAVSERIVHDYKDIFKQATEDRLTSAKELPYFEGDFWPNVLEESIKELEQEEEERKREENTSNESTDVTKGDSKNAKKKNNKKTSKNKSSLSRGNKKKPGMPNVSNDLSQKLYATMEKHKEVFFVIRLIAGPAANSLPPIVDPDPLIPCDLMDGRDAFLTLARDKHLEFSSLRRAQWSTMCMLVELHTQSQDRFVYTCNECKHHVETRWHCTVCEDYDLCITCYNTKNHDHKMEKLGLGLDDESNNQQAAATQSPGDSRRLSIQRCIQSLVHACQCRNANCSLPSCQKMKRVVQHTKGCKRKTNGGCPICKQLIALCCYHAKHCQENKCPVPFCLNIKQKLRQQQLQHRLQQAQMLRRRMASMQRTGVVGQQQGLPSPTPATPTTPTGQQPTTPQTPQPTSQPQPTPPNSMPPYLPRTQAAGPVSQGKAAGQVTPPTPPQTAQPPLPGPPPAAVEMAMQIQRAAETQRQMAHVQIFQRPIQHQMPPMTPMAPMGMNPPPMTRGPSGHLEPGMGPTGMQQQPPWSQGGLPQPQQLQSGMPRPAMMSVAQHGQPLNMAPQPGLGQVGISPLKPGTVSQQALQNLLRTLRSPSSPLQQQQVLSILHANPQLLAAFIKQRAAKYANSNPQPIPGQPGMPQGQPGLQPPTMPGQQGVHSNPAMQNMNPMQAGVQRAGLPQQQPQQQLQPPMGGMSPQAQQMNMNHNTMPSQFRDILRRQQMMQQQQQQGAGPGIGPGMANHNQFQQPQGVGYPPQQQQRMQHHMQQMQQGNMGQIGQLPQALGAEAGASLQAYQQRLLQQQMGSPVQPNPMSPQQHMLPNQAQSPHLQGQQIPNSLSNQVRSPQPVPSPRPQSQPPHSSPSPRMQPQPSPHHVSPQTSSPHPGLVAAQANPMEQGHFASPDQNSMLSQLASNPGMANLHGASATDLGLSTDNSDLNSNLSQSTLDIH

| Binder | binding result [1] | binding result [2] |
| --- | --- | --- |
| B1 | binds | – |
| B2 | – | binds |

— US9574173 (ACCELERATED BIOSCIENCES, dated 2017)
